Data published in PMC10732425.

Assays:
[1] = molecular target: RhlR:mBTL;PqsE (Pseudomonas aeruginosa (PA14?);Pseudomonas aeruginosa (PA14?)) (UniProt P54292+A0A0H2Z6F6); experiment: EMSA; conditions: […] (17 of 20 uL): 200 mM KCl, 50 mM Tris-HCl pH 7.5, 250 ug/mL BSA, 50 mM NaCl, 5 nM EDTA, 5 uM MgCl2, 5 uM DTT ([…], RT 15 min
[2] = molecular target: T1, RhlR:mBTL (Pseudomonas aeruginosa (PA14?)) (UniProt P54292); experiment: EMSA; conditions: […] (17 of 20 uL): 200 mM KCl, 50 mM Tris-HCl pH 7.5, 250 ug/mL BSA, 50 mM NaCl, 5 nM EDTA, 5 uM MgCl2, 5 uM DTT ([…], RT 15 min
T1 sequence: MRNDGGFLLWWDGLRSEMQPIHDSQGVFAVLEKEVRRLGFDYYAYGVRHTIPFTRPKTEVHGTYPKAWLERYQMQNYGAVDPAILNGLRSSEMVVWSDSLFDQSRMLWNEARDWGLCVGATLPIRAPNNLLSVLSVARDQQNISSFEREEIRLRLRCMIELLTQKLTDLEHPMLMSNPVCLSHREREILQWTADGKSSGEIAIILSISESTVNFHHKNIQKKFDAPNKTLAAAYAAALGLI

| Sequence | binding [1] | binding [2] |
| --- | --- | --- |
| TATGGCGTGTCGGGAGAGATCCGCAGTCCTTGGCGGCAGGCGATGCGCAGGCAGGAAGGACGCATCGTTCAGCCAATCTACGCCGTCGACCGGGCGCGACCACTGCTAGAGTTCGCAGGAGGGCTACAGGGGTGTCCTGGCACTGGCGATGCATGGCCCGGTGCCGGTCTATGGCAGCCGCCTGCCGGCCCACTCGTTCGATTGTTACGCTGTCTGTAAT (double strand) [lecB promoter fragment] | binds | – |
| TGGATGGTCATGTCTGCCCGCGAGAGGGGCTGGATATCGTGTTGACGTTCAAGAAGGTGCATTGCCCTTTCATCCGTGAGAGAGAGTCGGGAGCCGGCGACACTAGGAGTCGGGCCGGGCGCGGACATTGATCCATGACAGGTGGGTATCTTCCCCTGCCAATTCTGGTAGGTGGGGTGCAGGTGTTCGCGCGGAAAAGTCGAACCCGCGCCTACCCCAG (double strand) [hcnA promoter fragment] | binds | – |
| GGGGCTTGTGTGGGTCTTGCAGATCGGCCTGCGCAAACGATTGGCGTCCGTGTTCACGCGTAGCCGATGAACACTTTTTAGCCAATTCGAAAGCTAACGGTAACTGCCAGATTTCACAGGACGGGCGGTCGCCTGCGCATAAGCCCCTGCCCGCCCGCGATAAGGCGTGCCAGAGCGGCCGGCGGGGAACAGCGAGGGGTTGGCGGAAAAGGCATGAAAA (double strand) [rhlA promoter fragment] | binds | binds |
